The results in this text go back to PMC7108423 (The International Journal of Biochemistry & Cell Biology, 2005).

Holding throughout (assay): SPR
On the technique in general: In SPR one partner is held on a chip, and binding of the other changes the refractive index at the surface.

Assay [1] has as its target His-tagged N11 (aa283-422 of SARS-CoV N protein) (SARS coronavirus (SARS-CoV), UniProt P59595 283-422).
Assay [2] addresses T1, recombinant SARS-CoV N protein (SARS coronavirus (SARS-CoV), UniProt P59595 1-422).
Assay [3] deals with T1, recombinant SARS-CoV N protein. This is another data set of the same source.
The target is the same in assay [4]. This is another data set of the same source.

Where two headings read alike, the source gives them in different places.

T1 sequence (P59595 whole entry): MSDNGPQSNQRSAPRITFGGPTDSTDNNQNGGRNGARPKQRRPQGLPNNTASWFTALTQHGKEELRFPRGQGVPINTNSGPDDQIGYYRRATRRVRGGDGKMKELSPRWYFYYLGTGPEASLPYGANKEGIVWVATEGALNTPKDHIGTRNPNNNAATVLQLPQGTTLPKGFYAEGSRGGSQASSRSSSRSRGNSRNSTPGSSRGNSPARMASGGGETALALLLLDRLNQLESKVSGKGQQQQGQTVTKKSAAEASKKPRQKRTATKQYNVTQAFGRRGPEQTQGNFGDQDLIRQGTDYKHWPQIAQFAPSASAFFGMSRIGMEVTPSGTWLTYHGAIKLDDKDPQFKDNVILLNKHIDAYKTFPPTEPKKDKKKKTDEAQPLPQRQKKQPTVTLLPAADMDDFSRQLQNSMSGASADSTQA
Sequence of His-tagged N11 (aa283-422 of SARS-CoV N protein) (P59595 283-422): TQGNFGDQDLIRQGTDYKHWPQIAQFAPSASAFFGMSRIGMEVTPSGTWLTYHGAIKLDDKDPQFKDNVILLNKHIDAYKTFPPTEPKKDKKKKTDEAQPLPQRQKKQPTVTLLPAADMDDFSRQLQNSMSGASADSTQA

B1: His-tagged SARS-CoV ME (endodomain of M protein, aa102-221) (domain or fragment)
chain: FARTRSMWSFNPETNILLNVPLRGTIVTRPLMESELVIGAVIIRGHLRMAGHSLGRCDIKDLPKEITVATSRTLSYYKLGASQRVGTDSGFAAYNRYRIGNYKLNTDHAGSNDNIALLVQ
Regarding B1, the Kd (in general, the equilibrium constant for the complex coming apart) in assay [1] came out at 0.61 ± 0.06 µM; in assay [2] it was 0.55 ± 0.04 µM; in assay [3], 49.2 µM; in assay [4] it was 21.2 µM. For the same molecule, the koff – broadly, the rate constant with which the complex falls apart – in assay [2] was found to be 0.00223 s⁻¹. Besides, in assay [2], the kon (in general, the rate constant with which the complex forms) worked out at 4180 M⁻¹ s⁻¹.

B2: MCT peptide (residues 197-221 of SARS-CoV M protein) (peptide)
peptide: RYRIGNYKLNTDHAGSNDNIALLVQ
Take B2: in assay [2], the dissociation constant (Kd) is 75 ± 5 µM, the off-rate (koff) is 0.0394 ± 0.002 s⁻¹ and the association rate constant (kon) came out at 509 ± 42 M⁻¹ s⁻¹.
